Measurements taken from patent publication US20160244509A1.

B1: recombinant GENEART codon optimized D25 (rD25 GA) (antibody, V domains shown)
VH: QVQLVQSGAEVKKPGSSVMVSCQASGGPLRNYIINWLRQAPGQGPEWMGGIIPVLGTVHYAPKFQGRVTITADESTDTAYIHLISLRSEDTAMYYCATETALVVSTTYLPHYFDNWGQGTLVTVSS
VL: DIQMTQSPSSLSAAVGDRVTITCQASQDIVNYLNWYQQKPGKAPKLLIYVASNLETGVPSRFSGSGSGTDFSLTISSLQPEDVATYYCQQYDNLPLTFGGGTKVEIKR
B2: AM16 (antibody, V domains shown)
VH: EVQLVETGGGLAQPGGSLRLSCAASGFTFSSYNMNWVRQAPGKGLEWVSHISAGSSYIYYSDSVKGRFTVSRDNVRNSVYLQMNSLRAADTAVYYCAREDYGPGNYYSPNWFDPWGQGTLVTVSS
VL: QSVVTQPPSVSGAPGQRVTISCTGSSSNIGAGYDVHWYQQLPGTAPKLLIYGNTNRPSGVSDRFSGSKSGTSASLAITGLQAEDEADYYCHSYDRSLSGSVFGGGTKLTV
B3: AM23 (antibody, V domains shown)
VH: EVQLVESGGNVVKPGTSLRLSCAATGFNFHNYGMNWVRQAPGKGLEWVAVVWYDGSKKYYADSVTGRFAISRDNSKNTLYLQMNSLRVEDTAVYYCVRDKVGPTPYFDSWGQGTLVTVSS
VL: SYVLTQPPSVSLAPGGTAAITCGRNNIGSETVHWYQQKPGQAPVLVVYDDDDRPSGIPERFSGSNSGNTATLTISRVEAGDEADYYCQVWDRSNYHQVFGGGTKLTV
B4: AM14 (antibody, V domains shown)
VH: EVQLVESGGGVVQPGRSLRLSCAASGFSFSHYAMHWVRQAPGKGLEWVAVISYDGENTYYADSVKGRFSISRDNSKNTVSLQMNSLRPEDTALYYCARDRIVDDYYYYGMDVWGQGATVTVSS
VL: DIQMTQSPSSLSASVGDRVTITCQASQDIKKYLNWYHQKPGKVPELLMHDASNLETGVPSRFSGRGSGTDFTLTISSLQPEDIGTYYCQQYDNLPPLTFGGGTKVEIKRTV
B5: D25 (B63D10-D25), monoclonal antibody from the B cell line (culture supernatant or purified from it) (antibody, V domains shown)
VH: B1 VH
VL: DIQMTQSPSSLSAAVGDRVTITCQASQDIVNYLNWYQQKPGKAPKLLIYVASNLETGVPSRFSGSGSGTDFSLTISSLQPEDVATYYCQQYDNLPLTFGGGTKVEIKRTV
B6: recombinant purified D25 (rD25), expressed in 293T cells (antibody, V domains shown)
VH: B1 VH
VL: B5 VL

The binders below were run against RSV F protein of RS virus subtype A strains (A2, X and 2006-1) (assay: cell-based or functional assay).

| Binder | IC50 values (ng/ml), RS virus neutralization, HEp2 cells, subtype A | IC50 values (ng/ml), RS virus neutralization, Vero cells, subtype A |
| --- | --- | --- |
| B1 | 5.3 ng/mL | 3.2 ng/mL |

Each binder was assayed against RSV F protein of RS virus subtype B strains (2007-2 and Z) (assay: cell-based or functional assay).

| Binder | IC50 values (ng/ml), RS virus neutralization, HEp2 cells, subtype B | IC50 values (ng/ml), RS virus neutralization, Vero cells, subtype B |
| --- | --- | --- |
| B1 | 1.3 ng/mL | 1.2 ng/mL |

Target: RSV F protein of RS virus subtype A strains (A2, X and 2006-1)
Experiment: cell-based or functional assay
Remark: another data set of the same source

| Binder | IC50 values (ng/ml), RS virus neutralization, HEp2 cells, subtype A | IC50 values (ng/ml), RS virus neutralization, Vero cells, subtype A |
| --- | --- | --- |
| B2 | 286 ng/mL | 304 ng/mL |
| B3 | 25 ng/mL | 19.4 ng/mL |
| B4 | 21.5 ng/mL | 15.2 ng/mL |
| B5 | 3.3 ng/mL | 3.4 ng/mL |
| B6 | 2.1 ng/mL | 1.6 ng/mL |

Target: RSV F protein of RS virus subtype B strains (2007-2 and Z)
Experiment: cell-based or functional assay
Remark: another data set of the same source

| Binder | IC50 values (ng/ml), RS virus neutralization, HEp2 cells, subtype B | IC50 values (ng/ml), RS virus neutralization, Vero cells, subtype B |
| --- | --- | --- |
| B2 | 125 ng/mL | 126 ng/mL |
| B3 | 191 ng/mL | 169 ng/mL |
| B4 | 6.7 ng/mL | 1.1 ng/mL |
| B5 | 14.3 ng/mL | 9 ng/mL |
| B6 | 1.9 ng/mL | 0.3 ng/mL |
